± gives the standard deviation of the averaged measurements.
system: Saccharomyces cerevisiae; experiment: protein stability index of tFT-peptide fusion (C-terminal peptide) (PSI (0-1 scale)); higher = more stable (slower turnover); conditions: genetic background: wild type; temperature: 30 C
Procedure: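 Multiplexed protein stability (MPS) profiling in S. cerevisiae. Random 12-aa peptides (tFT-X12 library) are fused to the C-terminus of a sfGFP-mCherry tandem fluorescent timer, after mCherry and a GGGS linker. Cells are FACS-sorted into 8 mCherry/sfGFP bins and deep-sequenced. The protein stability index (PSI) is the read-weighted bin average, scaled from 0 (unstable) to 1 (stable). Only peptides with >10 reads are reported; cells were grown at 30 °C in SC-His with glucose.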
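Further: PSI is a weighted mean of sequencing reads over stability bins, variants kept only with over 10 reads, mCherry proximal and sfGFP distal, peptide attached via GGGS linker.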

Sequence | protein stability index
DRQRVGYRGPPH | 0.639 ± 0.096
DRVFLVDMGVMW | 0.6632 ± 0.0014
DRYSVGCGVSEG | 0.7038 ± 0.002
DSAWSWTLLFVG | 0.63 ± 0.026
DSIVHSFYIPLL | 0.666 ± 0.048
DSKRIQSRLYYS | 0.66 ± 0.027
DSRSPSTTLIPL | 0.6623 ± 0.0018
DSSPIESAVAPS | 0.716 ± 0.023
DSTMWDALSVCV | 0.621 ± 0.026
DSVFTKALEPAW | 0.722 ± 0.04
DTDHSSNCELPG | 0.696 ± 0.083
DTGGGPQTSRWD | 0.715 ± 0.17
DTSGNQLQDPDI | 0.706 ± 0.029
DVAYSSSNAVHR | 0.669 ± 0.045
DVESGRVDLGEE | 0.787 ± 0.15
DVFLFPGVYFRM | 0.594 ± 0.012
DVGFGWGCGVGG | 0.736 ± 0.014
DVGFGWGGGVGG | 0.76 ± 0.014
DVGSPFSISVQS | 0.647 ± 0.045
DVLLRGAVQPIC | 0.659 ± 0.0098
DVRNVCNISDEV | 0.654 ± 0.022
DVVGGCEKWWER | 0.734 ± 0.049
DVVLVSPCGQMW | 0.725 ± 0.21
DWSGTISVSSLR | 0.672 ± 0.1
DWTNLTVITGDT | 0.674 ± 0.035

Sequence | protein stability index
DYCARQRLLDQF | 0.685 ± 0.11
DYPQWWEEQHVP | 0.797 ± 0.019
DYSRCGCRLSGK | 0.677 ± 0.03
EAGESKNVDSLL | 0.638 ± 0.0081
EAIQDCERGPCW | 0.698 ± 0.0081
EAKKNNIVEKQR | 0.681 ± 0.015
EAPRTPPSVPVN | 0.7866 ± 0.0051
EAVRASSPAGLP | 0.7017 ± 0.0023
ECCDSGLCWLTF | 0.754 ± 0.034
ECGRWLGRGVRG | 0.735 ± 0.045
EDFKTKQKKKKE | 0.709 ± 0.077
EDKVRGQGSRHN | 0.722 ± 0.011
EDRYIGITRYKD | 0.682 ± 0.11
EDSKLVSRLSRS | 0.712 ± 0.082
EDTYSGKGSRGV | 0.774 ± 0.047
EEECSTPWGIRG | 0.635 ± 0.048
EELTVLCGLLKT | 0.64 ± 0.04
EEQKKIRKRPEK | 0.69686 ± 0.00066
EERGGDNVTVCG | 0.745 ± 0.031
EERLGIIVRSDR | 0.635 ± 0.079
EFAYQSRYKVGR | 0.694 ± 0.058
EFFSDLLEMIRL | 0.725 ± 0.033
EFSILLPLPFFR | 0.656 ± 0.076
EGDGLGGGGQGG | 0.685 ± 0.0069
EGDQSRMTQPRG | 0.647 ± 0.034

Sequence | protein stability index
EGGARGCGEGSQ | 0.656 ± 0.015
EGGEWGSFGSAV | 0.704 ± 0.0094
EGGGGGGAPRVR | 0.752 ± 0.093
EGGGGGPGDARR | 0.663 ± 0.025
EGLSYSFGDCPM | 0.754 ± 0.03
EGRAAETFVCAI | 0.6429 ± 0.0055
EGRSVWVVGRAV | 0.652 ± 0.045
EGSPIVNSLALD | 0.668 ± 0.017
EGVCEIEMRGSR | 0.788 ± 0.021
EGVGGGRWCGRG | 0.666 ± 0.055
EGVGRGCSGGCW | 0.713 ± 0.055
EGYRDMAFKLCK | 0.697 ± 0.0093
EHLYIYGKDKWK | 0.602 ± 0.025
EHMEYKSMVSCA | 0.51 ± 0.059
EHRPCQGVMYII | 0.522 ± 0.0026
EIDMLVVRNLKH | 0.664 ± 0.044
EIKGTQRKGGKR | 0.726 ± 0.055
EINIMKIIYRKI | 0.666 ± 0.044
EIPGPLALSPAG | 0.736 ± 0.015
EKCCGAAVMARC | 0.561 ± 0.015
EKIRSARKKTIH | 0.735 ± 0.0082
EKKEKTPKPKPR | 0.685 ± 0.025
EKKKKKKKKKKK | 0.7721 ± 0.003
EKKKNKTKKKTN | 0.688 ± 0.056
EKKKTKKKTIKK | 0.636 ± 0.03

Sequence | protein stability index
EKQKGIVQADKI | 0.665 ± 0.046
EKVRICKWKGGI | 0.616 ± 0.061
EKWMRYLARCDI | 0.6882 ± 0.0012
EKYELHEVEKEI | 0.597 ± 0.049
ELHEETEKSKYR | 0.74 ± 0.11
ELLTVQLHKAAR | 0.706 ± 0.0076
ELRLYFPRLFQF | 0.496 ± 0.0078
ELSLSCPPLETP | 0.768 ± 0.034
ELSRLLPASFSL | 0.696 ± 0.032
ELVGGEGIGGGL | 0.581 ± 0.024
EMCRCVEGREEG | 0.6704 ± 0.0036
ENKKKKKNIEKK | 0.702 ± 0.04
ENRNKSYEISRP | 0.7015 ± 0.0052
EPGLIPVAGTFF | 0.76 ± 0.011
EPNEKEKNKEVK | 0.704 ± 0.0079
EPPLPEPPLSRS | 0.705 ± 0.023
EQDDGARMIRRV | 0.683 ± 0.027
EQDLSTKVKRST | 0.65 ± 0.12
ERGAEGKKEPEK | 0.6534 ± 0.0061
ERGGGRRRLSNA | 0.656 ± 0.062
ERGRKGGAGARD | 0.6439 ± 0.0047
ERINFSRRDFDC | 0.805 ± 0.059
ERKNRKIRREKK | 0.774 ± 0.16
